From PMC2873410

Legend:
Experiment in all cases: cross-linking; lysate (hypotonic buffer) of Sf9 cells expressing the V5-tagged protein, 0.01% glutaraldehyde at room temperature for various times; Western blot with anti-V5 antibody
[1] = target: WSSV structural protein VP51A, full length, V5- or FLAG-tagged (white spot syndrome virus (WSSV-TW strain))
[2] = target: WSSV structural protein VP19, full length, V5- or FLAG-tagged (white spot syndrome virus (WSSV-TW strain))
[3] = target: WSSV structural protein VP24, full length, V5- or FLAG-tagged (white spot syndrome virus (WSSV-TW strain))

**Q.** With “WSSV structural protein VP51A, full length, V5- or FLAG-tagged (natural protein)” as the substance, how does the stoichiometry N [1] read?
**A.** The stoichiometry N was 2.

**Q.** Which stoichiometry N [2] does the source give for “WSSV structural protein VP19, full length, V5- or FLAG-tagged (natural protein)” here?
**A.** The stoichiometry N was 2.

**Q.** Which stoichiometry N [3] does the source give for “WSSV structural protein VP24, full length, V5- or FLAG-tagged (natural protein)” here?
**A.** The stoichiometry N was 2.
